Series [1] has as its target T1, β-catenin (immunoprecipitated), P35222.
T1 chain: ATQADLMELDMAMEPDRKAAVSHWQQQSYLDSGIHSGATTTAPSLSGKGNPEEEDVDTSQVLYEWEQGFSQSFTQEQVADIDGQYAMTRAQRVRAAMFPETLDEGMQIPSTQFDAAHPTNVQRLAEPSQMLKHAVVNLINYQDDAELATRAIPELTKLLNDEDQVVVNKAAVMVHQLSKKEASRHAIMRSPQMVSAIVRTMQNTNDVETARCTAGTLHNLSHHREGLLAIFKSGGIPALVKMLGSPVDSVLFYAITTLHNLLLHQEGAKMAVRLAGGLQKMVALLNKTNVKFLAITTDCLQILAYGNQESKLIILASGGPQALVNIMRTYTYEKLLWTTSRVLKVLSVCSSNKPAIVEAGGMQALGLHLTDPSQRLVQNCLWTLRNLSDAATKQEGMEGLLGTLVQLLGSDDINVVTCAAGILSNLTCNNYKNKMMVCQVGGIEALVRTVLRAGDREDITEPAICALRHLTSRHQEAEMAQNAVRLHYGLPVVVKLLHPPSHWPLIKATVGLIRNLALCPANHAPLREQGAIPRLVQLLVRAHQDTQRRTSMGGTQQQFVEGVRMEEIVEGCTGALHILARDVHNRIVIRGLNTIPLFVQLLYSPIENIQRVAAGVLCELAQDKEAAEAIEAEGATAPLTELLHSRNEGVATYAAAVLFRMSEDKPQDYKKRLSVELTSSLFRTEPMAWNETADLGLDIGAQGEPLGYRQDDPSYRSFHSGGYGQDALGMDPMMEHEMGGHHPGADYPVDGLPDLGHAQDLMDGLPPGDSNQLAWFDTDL

Series [2] deals with T2, p120^CTN (immunoprecipitated), O60716.
T2 chain: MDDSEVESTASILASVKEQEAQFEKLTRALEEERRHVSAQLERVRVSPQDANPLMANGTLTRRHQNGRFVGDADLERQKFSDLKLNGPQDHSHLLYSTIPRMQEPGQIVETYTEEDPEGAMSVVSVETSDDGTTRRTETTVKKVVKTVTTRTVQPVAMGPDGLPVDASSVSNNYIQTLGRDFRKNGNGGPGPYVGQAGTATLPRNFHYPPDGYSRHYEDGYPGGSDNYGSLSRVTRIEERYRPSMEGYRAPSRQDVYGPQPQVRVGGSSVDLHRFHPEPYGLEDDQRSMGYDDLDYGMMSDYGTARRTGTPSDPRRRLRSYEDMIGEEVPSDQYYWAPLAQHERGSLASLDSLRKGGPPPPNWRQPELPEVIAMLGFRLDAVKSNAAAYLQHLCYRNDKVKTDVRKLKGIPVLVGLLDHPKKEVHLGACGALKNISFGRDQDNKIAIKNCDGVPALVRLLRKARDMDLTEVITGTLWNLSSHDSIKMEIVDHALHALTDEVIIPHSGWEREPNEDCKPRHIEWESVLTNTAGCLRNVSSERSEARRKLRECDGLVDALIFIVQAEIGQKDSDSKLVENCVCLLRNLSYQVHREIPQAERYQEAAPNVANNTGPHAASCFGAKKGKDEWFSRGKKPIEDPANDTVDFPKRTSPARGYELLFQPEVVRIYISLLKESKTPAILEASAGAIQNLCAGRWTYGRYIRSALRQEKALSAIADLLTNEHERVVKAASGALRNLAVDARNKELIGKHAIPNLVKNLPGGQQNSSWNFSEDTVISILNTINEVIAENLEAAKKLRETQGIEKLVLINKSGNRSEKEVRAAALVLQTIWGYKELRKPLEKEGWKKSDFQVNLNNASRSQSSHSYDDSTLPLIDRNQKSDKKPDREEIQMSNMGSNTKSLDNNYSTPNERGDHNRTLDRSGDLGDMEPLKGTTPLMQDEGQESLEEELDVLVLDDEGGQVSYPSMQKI

Series [3] addresses T3, Cell permeable caspase inhibitor containing the sequence IETD, P08620.
T3 chain: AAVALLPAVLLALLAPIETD

B1: Recombinant caspase-8 (protein)
chain: SESQTLDKVYQMKSKPRGYCLIINNHNFAKAREKVPKLHSIRDRNGTHLDAGALTTTFEELHFEIKPHDDCTVEQIYEILKIYQLMDHSNMDCFICCILSHGDKGIIYGTDGQEAPIYELTSQFTGLKCPSLAGKPKVFFIQACQGDNYQKGIPVETDSEEQPYLEMDLSSPQTRYIPDEADFLLGMATVNNCVSYRNPAEGTWYIQSLCQSLRERCPRGDDILTILTEVNYEVSNKDDKKNMGKQMPQPTFTLRKKLVFPSD
For the protein B1, the “In vitro cleavage of the immunoprecipitated protein” value in series [1] was “Cleavage of immunoprecipitated β-catenin and p120^CTN by recombinant caspase-8 in vitro also was not demonstrated”; in series [2] it was “Cleavage of immunoprecipitated β-catenin and p120^CTN by recombinant caspase-8 in vitro also was not demonstrated”.

B2: Caspase-8 (endogenous, in melanocytes and melanoma cells) (protein)
chain: MDFSRNLYDIGEQLDSEDLASLKFLSLDYIPQRKQEPIKDALMLFQRLQEKRMLEESNLSFLKELLFRINRLDLLITYLNTRKEEMERELQTPGRAQISAYRVMLYQISEEVSRSELRSFKFLLQEEISKCKLDDDMNLLDIFIEMEKRVILGEGKLDILKRVCAQINKSLLKIINDYEEFSKERSSSLEGSPDEFSNGEELCGVMTISDSPREQDSESQTLDKVYQMKSKPRGYCLIINNHNFAKAREKVPKLHSIRDRNGTHLDAGALTTTFEELHFEIKPHDDCTVEQIYEILKIYQLMDHSNMDCFICCILSHGDKGIIYGTDGQEAPIYELTSQFTGLKCPSLAGKPKVFFIQACQGDNYQKGIPVETDSEEQPYLEMDLSSPQTRYIPDEADFLLGMATVNNCVSYRNPAEGTWYIQSLCQSLRERCPRGDDILTILTEVNYEVSNKDDKKNMGKQMPQPTFTLRKKLVFPSD
Consider B2, for which the “Proteolytic processing of caspase-8 (immunoblot)” value in series [3] is “Treatment of cells with a cell permeable inhibitor of caspase-8 prevented its proteolytic processing”.

Values taken from patent publication US8597645.
